Laboratory results reported in the supplement of paper PMC9112550, “Optimization of the antimicrobial peptide Bac7 by deep mutational scanning” (BMC Biology, 2022).

tested on: Escherichia coli TOP10; test: shrunken log2 fold change of peptide-encoding DNA abundance (4.5 h post-induction vs induction); higher = less antimicrobial activity (less host growth inhibition); conditions: time post-induction: 4.5 h; library: site-saturation at positions 5, 18, 19, 20
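Further: peptides expressed intracellularly from a pBAD plasmid library in pooled LB shake-flask culture, induced with 0.3% L-arabinose, DNA abundance read by NGS, three biological replicates, DESeq2 with apeglm shrinkage.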

| Sequence | shrunken log2 fold change |
| --- | --- |
| RRIRGRPPRLPRPRPRPIGTPRP | 0.334 |
| RRIRGRPPRLPRPRPRPIGWPRP | 1.18 |
| RRIRGRPPRLPRPRPRPIHNPRP | -0.268 |
| RRIRGRPPRLPRPRPRPIKGPRP | -0.0627 |
| RRIRGRPPRLPRPRPRPIKRPRP | 0.171 |
| RRIRGRPPRLPRPRPRPIMAPRP | 0.401 |
| RRIRGRPPRLPRPRPRPIMNPRP | 0.237 |
| RRIRGRPPRLPRPRPRPIMPPRP | 0.0639 |
| RRIRGRPPRLPRPRPRPIMTPRP | 2.36 |
| RRIRGRPPRLPRPRPRPINEPRP | 0.0939 |
| RRIRGRPPRLPRPRPRPINVPRP | -0.248 |
| RRIRGRPPRLPRPRPRPIPFPRP | 0.266 |
| RRIRGRPPRLPRPRPRPIPMPRP | 0.372 |
| RRIRGRPPRLPRPRPRPIQDPRP | 0.391 |
| RRIRGRPPRLPRPRPRPIRGPRP | 0.29 |
| RRIRGRPPRLPRPRPRPIRNPRP | -0.0262 |
| RRIRGRPPRLPRPRPRPISKPRP | 0.0989 |
| RRIRGRPPRLPRPRPRPISRPRP | 0.0494 |
| RRIRGRPPRLPRPRPRPISWPRP | -0.0765 |
| RRIRGRPPRLPRPRPRPITSPRP | 0.0724 |
| RRIRGRPPRLPRPRPRPIWDPRP | 0.474 |
| RRIRGRPPRLPRPRPRPIWWPRP | 0.922 |
| RRIRGRPPRLPRPRPRPIYEPRP | -0.0413 |
| RRIRGRPPRLPRPRPRPIYHPRP | -0.1 |
| RRIRGRPPRLPRPRPRPIYYPRP | -0.197 |

| Sequence | shrunken log2 fold change |
| --- | --- |
| RRIRGRPPRLPRPRPRPKCVPRP | 0.505 |
| RRIRGRPPRLPRPRPRPKDQPRP | 0.843 |
| RRIRGRPPRLPRPRPRPKEKPRP | 0.0377 |
| RRIRGRPPRLPRPRPRPKFKPRP | 0.383 |
| RRIRGRPPRLPRPRPRPKGTPRP | 0.294 |
| RRIRGRPPRLPRPRPRPKHFPRP | -0.121 |
| RRIRGRPPRLPRPRPRPKIFPRP | 0.288 |
| RRIRGRPPRLPRPRPRPKIKPRP | 0.564 |
| RRIRGRPPRLPRPRPRPKILPRP | 0.229 |
| RRIRGRPPRLPRPRPRPKIWPRP | 0.64 |
| RRIRGRPPRLPRPRPRPKKAPRP | -0.0191 |
| RRIRGRPPRLPRPRPRPKKPPRP | -0.0158 |
| RRIRGRPPRLPRPRPRPKKRPRP | 0.817 |
| RRIRGRPPRLPRPRPRPKLNPRP | 0.69 |
| RRIRGRPPRLPRPRPRPKMPPRP | 0.434 |
| RRIRGRPPRLPRPRPRPKPLPRP | 0.375 |
| RRIRGRPPRLPRPRPRPKPQPRP | 0.543 |
| RRIRGRPPRLPRPRPRPKPYPRP | 0.332 |
| RRIRGRPPRLPRPRPRPKQFPRP | 0.566 |
| RRIRGRPPRLPRPRPRPKRNPRP | 0.624 |
| RRIRGRPPRLPRPRPRPKTPPRP | 1.73 |
| RRIRGRPPRLPRPRPRPKVTPRP | 0.29 |
| RRIRGRPPRLPRPRPRPKWEPRP | 1.13 |
| RRIRGRPPRLPRPRPRPKWYPRP | 0.806 |
| RRIRGRPPRLPRPRPRPKYSPRP | -0.156 |

| Sequence | shrunken log2 fold change |
| --- | --- |
| RRIRGRPPRLPRPRPRPKYTPRP | 0.101 |
| RRIRGRPPRLPRPRPRPLACPRP | 0.975 |
| RRIRGRPPRLPRPRPRPLAHPRP | 0.546 |
| RRIRGRPPRLPRPRPRPLAMPRP | 0.94 |
| RRIRGRPPRLPRPRPRPLARPRP | 0.91 |
| RRIRGRPPRLPRPRPRPLDWPRP | 1.07 |
| RRIRGRPPRLPRPRPRPLDYPRP | 0.0074 |
| RRIRGRPPRLPRPRPRPLFYPRP | 0.257 |
| RRIRGRPPRLPRPRPRPLHCPRP | 0.188 |
| RRIRGRPPRLPRPRPRPLHIPRP | 0.105 |
| RRIRGRPPRLPRPRPRPLIFPRP | 0.404 |
| RRIRGRPPRLPRPRPRPLIVPRP | 0.274 |
| RRIRGRPPRLPRPRPRPLKAPRP | 0.0177 |
| RRIRGRPPRLPRPRPRPLLAPRP | 2.21 |
| RRIRGRPPRLPRPRPRPLLEPRP | 1.39 |
| RRIRGRPPRLPRPRPRPLLSPRP | 1.04 |
| RRIRGRPPRLPRPRPRPLMCPRP | 0.55 |
| RRIRGRPPRLPRPRPRPLMVPRP | 0.885 |
| RRIRGRPPRLPRPRPRPLPQPRP | 0.927 |
| RRIRGRPPRLPRPRPRPLQAPRP | 1.86 |
| RRIRGRPPRLPRPRPRPLRKPRP | 1.12 |
| RRIRGRPPRLPRPRPRPLRTPRP | 1.69 |
| RRIRGRPPRLPRPRPRPLSCPRP | 0.276 |
| RRIRGRPPRLPRPRPRPLTGPRP | 0.71 |
| RRIRGRPPRLPRPRPRPLTPPRP | 1.43 |
